Experimental findings from the supplement of paper PMC9112550, “Optimization of the antimicrobial peptide Bac7 by deep mutational scanning” (BMC Biology, 2022) are described below.
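Also: peptides expressed intracellularly from a pBAD plasmid library in pooled LB shake-flask culture, induced with 0.3% L-arabinose, DNA abundance read by NGS, three biological replicates, DESeq2 with apeglm shrinkage.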

For this data set, the system named is Escherichia coli TOP10. Description: shrunken log2 fold change of peptide-encoding DNA abundance (4.5 h post-induction vs induction); higher = less antimicrobial activity (less host growth inhibition). To be noted: time post-induction: 4.5 h; library: site-saturation at positions 5, 18, 19, 20.
Consider RRIRVRPPRLPRPRPRPVRRPRP, for which the “shrunken log2 fold change” value was determined as 2.95.

In the case of RRIRCRPPRLPRPRPRPVGLPRP, the “shrunken log2 fold change” value turned out to be 0.0659.

For RRIRFRPPRLPRPRPRPRQNPRP, the “shrunken log2 fold change” value was found to be 0.353.

For RRIRIRPPRLPRPRPRPVTCPRP, the “shrunken log2 fold change” value was -0.255.

Take RRIRLRPPRLPRPRPRPGSWPRP: the “shrunken log2 fold change” value turned out to be 0.18.

In the case of RRIRPRPPRLPRPRPRPRSHPRP, the “shrunken log2 fold change” value stood at 0.16.

Turning to RRIRVRPPRLPRPRPRPSRRPRP, the “shrunken log2 fold change” value turned out to be 0.157.

Regarding RRIRYRPPRLPRPRPRPIIRPRP, the “shrunken log2 fold change” value was -0.2.

Regarding RRIRRRPPRLPRPRPRPGQTPRP, the “shrunken log2 fold change” value was 0.0182.

As to RRIRTRPPRLPRPRPRPEHLPRP, the “shrunken log2 fold change” value was -0.00973.

Regarding RRIRSRPPRLPRPRPRPHWRPRP, the “shrunken log2 fold change” value amounted to 0.39.

RRIRNRPPRLPRPRPRPWQPPRP: the “shrunken log2 fold change” value is 0.104.

RRIRNRPPRLPRPRPRPNYMPRP: the “shrunken log2 fold change” value is -0.784.

For RRIRLRPPRLPRPRPRPIAIPRP, the “shrunken log2 fold change” value was 0.12.

For the sequence RRIRLRPPRLPRPRPRPIMWPRP, the “shrunken log2 fold change” value is -0.0155.

RRIRWRPPRLPRPRPRPASYPRP: the “shrunken log2 fold change” value amounted to 0.151.

On to RRIRERPPRLPRPRPRPTQVPRP, for which the “shrunken log2 fold change” value is -0.0607.

Take RRIRARPPRLPRPRPRPRRFPRP: the “shrunken log2 fold change” value was determined as 0.603.

Turning to RRIRKRPPRLPRPRPRPYPMPRP, the “shrunken log2 fold change” value was -0.2.

As to RRIRYRPPRLPRPRPRPCALPRP, the “shrunken log2 fold change” value is -0.671.

As to RRIRNRPPRLPRPRPRPSMYPRP, the “shrunken log2 fold change” value is -0.309.

With RRIRIRPPRLPRPRPRPSFQPRP, the “shrunken log2 fold change” value was -0.329.

Take RRIRWRPPRLPRPRPRPAETPRP: the “shrunken log2 fold change” value is 0.0775.

Consider RRIRFRPPRLPRPRPRPNIYPRP, for which the “shrunken log2 fold change” value was -0.116.

Consider RRIRYRPPRLPRPRPRPWARPRP, for which the “shrunken log2 fold change” value was -0.116.

On to RRIRDRPPRLPRPRPRPFHPPRP, for which the “shrunken log2 fold change” value was -0.106.

With RRIRWRPPRLPRPRPRPGAGPRP, the “shrunken log2 fold change” value amounted to 0.796.

As to RRIRYRPPRLPRPRPRPDLMPRP, the “shrunken log2 fold change” value was -0.107.

In the case of RRIRNRPPRLPRPRPRPGMIPRP, the “shrunken log2 fold change” value was found to be 0.00966.

RRIRRRPPRLPRPRPRPCVYPRP: the “shrunken log2 fold change” value is -0.42.

For the sequence RRIRVRPPRLPRPRPRPPMHPRP, the “shrunken log2 fold change” value was 0.245.

Consider RRIRHRPPRLPRPRPRPGLDPRP, for which the “shrunken log2 fold change” value is 0.269.

Consider RRIRARPPRLPRPRPRPRAVPRP, for which the “shrunken log2 fold change” value came out at 1.11.

As for RRIRCRPPRLPRPRPRPLWRPRP, the “shrunken log2 fold change” value worked out at 0.397.

As for RRIRVRPPRLPRPRPRPVRYPRP, the “shrunken log2 fold change” value was -0.136.

In the case of RRIRCRPPRLPRPRPRPQQSPRP, the “shrunken log2 fold change” value was -0.0144.

With RRIRRRPPRLPRPRPRPHHDPRP, the “shrunken log2 fold change” value is -0.298.

Consider RRIRDRPPRLPRPRPRPKECPRP, for which the “shrunken log2 fold change” value is 0.184.

Take RRIRRRPPRLPRPRPRPNYTPRP: the “shrunken log2 fold change” value was -0.44.

Take RRIRWRPPRLPRPRPRPAVLPRP: the “shrunken log2 fold change” value came out at 0.117.

For the sequence RRIRIRPPRLPRPRPRPCCYPRP, the “shrunken log2 fold change” value is -0.495.

In the case of RRIRARPPRLPRPRPRPNQDPRP, the “shrunken log2 fold change” value was 0.116.

In the case of RRIRRRPPRLPRPRPRPLNAPRP, the “shrunken log2 fold change” value worked out at 0.257.

Turning to RRIRIRPPRLPRPRPRPMCTPRP, the “shrunken log2 fold change” value is -0.0274.

On to RRIRVRPPRLPRPRPRPHGAPRP, for which the “shrunken log2 fold change” value is -0.0881.

Take RRIRGRPPRLPRPRPRPSRQPRP: the “shrunken log2 fold change” value was 0.133.

With RRIRTRPPRLPRPRPRPAIVPRP, the “shrunken log2 fold change” value amounted to 0.00191.

On to RRIRLRPPRLPRPRPRPRREPRP, for which the “shrunken log2 fold change” value came out at 0.223.

Regarding RRIRYRPPRLPRPRPRPIFPPRP, the “shrunken log2 fold change” value was -0.23.

For the sequence RRIRNRPPRLPRPRPRPDNHPRP, the “shrunken log2 fold change” value is -0.0531.

On to RRIRMRPPRLPRPRPRPCCTPRP, for which the “shrunken log2 fold change” value is -0.229.

As to RRIRRRPPRLPRPRPRPYQNPRP, the “shrunken log2 fold change” value was -0.74.

Regarding RRIRGRPPRLPRPRPRPHNLPRP, the “shrunken log2 fold change” value was -0.262.

With RRIRMRPPRLPRPRPRPYITPRP, the “shrunken log2 fold change” value was -0.393.

As for RRIRWRPPRLPRPRPRPPWAPRP, the “shrunken log2 fold change” value is 0.452.

As for RRIRVRPPRLPRPRPRPKWEPRP, the “shrunken log2 fold change” value stood at 0.00343.

As to RRIRFRPPRLPRPRPRPIWSPRP, the “shrunken log2 fold change” value was 0.0199.

With RRIRCRPPRLPRPRPRPLYMPRP, the “shrunken log2 fold change” value is -0.807.

With RRIRLRPPRLPRPRPRPAADPRP, the “shrunken log2 fold change” value amounted to 0.832.

As to RRIRHRPPRLPRPRPRPQQKPRP, the “shrunken log2 fold change” value was -0.0153.

Take RRIRPRPPRLPRPRPRPDEKPRP: the “shrunken log2 fold change” value is -0.0591.

Regarding RRIRSRPPRLPRPRPRPDEEPRP, the “shrunken log2 fold change” value is 0.895.

RRIRHRPPRLPRPRPRPFAKPRP: the “shrunken log2 fold change” value is -0.362.

On to RRIRWRPPRLPRPRPRPAELPRP, for which the “shrunken log2 fold change” value is -0.0722.

With RRIRLRPPRLPRPRPRPPLPPRP, the “shrunken log2 fold change” value was 0.502.

As to RRIRFRPPRLPRPRPRPDYWPRP, the “shrunken log2 fold change” value is -0.142.

In the case of RRIRMRPPRLPRPRPRPCFLPRP, the “shrunken log2 fold change” value is -0.117.

For RRIRTRPPRLPRPRPRPNEIPRP, the “shrunken log2 fold change” value was -0.128.

Consider RRIRGRPPRLPRPRPRPTERPRP, for which the “shrunken log2 fold change” value worked out at 0.675.

On to RRIRGRPPRLPRPRPRPYTVPRP, for which the “shrunken log2 fold change” value was determined as 0.0498.

As for RRIRYRPPRLPRPRPRPGNYPRP, the “shrunken log2 fold change” value is -0.0361.

Take RRIRARPPRLPRPRPRPGRRPRP: the “shrunken log2 fold change” value turned out to be 0.339.

As for RRIRMRPPRLPRPRPRPKCRPRP, the “shrunken log2 fold change” value was determined as 0.0493.

With RRIRGRPPRLPRPRPRPTSRPRP, the “shrunken log2 fold change” value was 0.336.

Consider RRIRWRPPRLPRPRPRPPWDPRP, for which the “shrunken log2 fold change” value stood at 0.131.

With RRIRARPPRLPRPRPRPLFAPRP, the “shrunken log2 fold change” value came out at 0.647.

Regarding RRIRDRPPRLPRPRPRPFSTPRP, the “shrunken log2 fold change” value was -0.0877.

For the sequence RRIRKRPPRLPRPRPRPKPGPRP, the “shrunken log2 fold change” value was 1.2.

As to RRIRCRPPRLPRPRPRPMMCPRP, the “shrunken log2 fold change” value came out at 0.0512.

Regarding RRIRRRPPRLPRPRPRPWAIPRP, the “shrunken log2 fold change” value is -0.0356.

Consider RRIRQRPPRLPRPRPRPEWNPRP, for which the “shrunken log2 fold change” value is -0.175.

RRIRYRPPRLPRPRPRPCRPPRP: the “shrunken log2 fold change” value is -0.0124.

RRIRARPPRLPRPRPRPPDVPRP: the “shrunken log2 fold change” value was determined as 0.655.

Regarding RRIRCRPPRLPRPRPRPQLAPRP, the “shrunken log2 fold change” value amounted to 0.163.

For the sequence RRIRKRPPRLPRPRPRPDIYPRP, the “shrunken log2 fold change” value came to 0.152.

With RRIRGRPPRLPRPRPRPYREPRP, the “shrunken log2 fold change” value is 0.00752.

In the case of RRIRQRPPRLPRPRPRPCYIPRP, the “shrunken log2 fold change” value is -0.191.

As for RRIRMRPPRLPRPRPRPLFLPRP, the “shrunken log2 fold change” value is -0.254.

Take RRIRYRPPRLPRPRPRPRHAPRP: the “shrunken log2 fold change” value is -0.0916.

With RRIRCRPPRLPRPRPRPNIMPRP, the “shrunken log2 fold change” value is -0.896.

On to RRIRWRPPRLPRPRPRPLQHPRP, for which the “shrunken log2 fold change” value came to 0.394.

In the case of RRIRERPPRLPRPRPRPMYSPRP, the “shrunken log2 fold change” value is -0.552.

Turning to RRIRYRPPRLPRPRPRPNQIPRP, the “shrunken log2 fold change” value was -0.0468.

As to RRIRSRPPRLPRPRPRPPRPPRP, the “shrunken log2 fold change” value was determined as 0.684.

Turning to RRIRYRPPRLPRPRPRPDCEPRP, the “shrunken log2 fold change” value came to 0.0295.

For RRIRSRPPRLPRPRPRPYAIPRP, the “shrunken log2 fold change” value is -0.228.

For RRIRTRPPRLPRPRPRPSRVPRP, the “shrunken log2 fold change” value is 0.526.

Take RRIRRRPPRLPRPRPRPPGFPRP: the “shrunken log2 fold change” value was 0.468.

As to RRIRWRPPRLPRPRPRPVTGPRP, the “shrunken log2 fold change” value was determined as 0.183.

For the sequence RRIRQRPPRLPRPRPRPMYKPRP, the “shrunken log2 fold change” value was -0.0194.

Turning to RRIRYRPPRLPRPRPRPAPVPRP, the “shrunken log2 fold change” value turned out to be 0.125.

With RRIRARPPRLPRPRPRPDMVPRP, the “shrunken log2 fold change” value was 0.308.

Regarding RRIRLRPPRLPRPRPRPTDTPRP, the “shrunken log2 fold change” value is -0.304.

Take RRIRVRPPRLPRPRPRPHGEPRP: the “shrunken log2 fold change” value turned out to be 0.0918.

With RRIRARPPRLPRPRPRPARVPRP, the “shrunken log2 fold change” value was 0.813.

Turning to RRIRPRPPRLPRPRPRPCHHPRP, the “shrunken log2 fold change” value is -0.536.

RRIRKRPPRLPRPRPRPEPPPRP: the “shrunken log2 fold change” value came to 2.92.

On to RRIRTRPPRLPRPRPRPNNRPRP, for which the “shrunken log2 fold change” value is -0.754.

On to RRIRKRPPRLPRPRPRPAYAPRP, for which the “shrunken log2 fold change” value is -0.085.

Turning to RRIRHRPPRLPRPRPRPTRWPRP, the “shrunken log2 fold change” value was 0.137.

Regarding RRIRERPPRLPRPRPRPACIPRP, the “shrunken log2 fold change” value is -0.0281.

Take RRIRIRPPRLPRPRPRPKCCPRP: the “shrunken log2 fold change” value was -0.143.

RRIRVRPPRLPRPRPRPCITPRP: the “shrunken log2 fold change” value was -0.233.

Regarding RRIRCRPPRLPRPRPRPDIKPRP, the “shrunken log2 fold change” value was -0.336.

RRIRFRPPRLPRPRPRPPMSPRP: the “shrunken log2 fold change” value is 0.0816.

As to RRIRTRPPRLPRPRPRPQKHPRP, the “shrunken log2 fold change” value is -0.459.

Turning to RRIRWRPPRLPRPRPRPGRKPRP, the “shrunken log2 fold change” value was -0.0532.

Turning to RRIRQRPPRLPRPRPRPFTPPRP, the “shrunken log2 fold change” value was -0.388.

Consider RRIRFRPPRLPRPRPRPYWEPRP, for which the “shrunken log2 fold change” value is -0.391.

Regarding RRIRMRPPRLPRPRPRPEYQPRP, the “shrunken log2 fold change” value was found to be 0.0424.

On to RRIRGRPPRLPRPRPRPRNNPRP, for which the “shrunken log2 fold change” value turned out to be 0.346.

Regarding RRIRHRPPRLPRPRPRPAYHPRP, the “shrunken log2 fold change” value is -0.274.

RRIRKRPPRLPRPRPRPSQLPRP: the “shrunken log2 fold change” value is 0.141.

Regarding RRIRGRPPRLPRPRPRPDMFPRP, the “shrunken log2 fold change” value came to 1.92.

Consider RRIRARPPRLPRPRPRPALVPRP, for which the “shrunken log2 fold change” value amounted to 0.597.
